Test results taken from FireProtDB (doi:10.1111/j.1432-1033.1993.tb17904.x).

Details: Carica papaya, Thermal, DSC, glycine-HCl 5 mM, reversible: yes

Chymopapain wild type, P14080, sequence (P14080 whole entry): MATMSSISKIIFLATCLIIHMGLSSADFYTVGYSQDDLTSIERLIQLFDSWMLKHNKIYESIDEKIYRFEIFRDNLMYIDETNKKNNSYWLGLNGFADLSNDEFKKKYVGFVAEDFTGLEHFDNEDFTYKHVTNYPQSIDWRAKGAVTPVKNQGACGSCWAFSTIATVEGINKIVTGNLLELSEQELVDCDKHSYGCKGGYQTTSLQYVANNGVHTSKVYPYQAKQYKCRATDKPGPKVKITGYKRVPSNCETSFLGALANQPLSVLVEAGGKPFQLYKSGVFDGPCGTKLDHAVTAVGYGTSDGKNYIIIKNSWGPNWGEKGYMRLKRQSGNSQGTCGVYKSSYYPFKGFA

Chymopapain wild type, P14080
Tm (pH 1.9): 69.3 °C
unfolding enthalpy (calorimetric) (pH 1.9): 147 kcal/mol
unfolding enthalpy (van 't Hoff) (pH 1.9): 88.3 kcal/mol
Tm (pH 2.4): 71.6 °C
unfolding enthalpy (calorimetric) (pH 2.4): 154 kcal/mol
unfolding enthalpy (van 't Hoff) (pH 2.4): 87.9 kcal/mol
Tm (pH 2.9): 78.3 °C
unfolding enthalpy (calorimetric) (pH 2.9): 175 kcal/mol
unfolding enthalpy (van 't Hoff) (pH 2.9): 95.2 kcal/mol
Tm (pH 3.5): 85.8 °C
unfolding enthalpy (calorimetric) (pH 3.5): 232 kcal/mol
unfolding enthalpy (van 't Hoff) (pH 3.5): 125 kcal/mol
